According to article PMC7913761:
Changes are numbered by the printed parent chain.

T1: IRF4 DBD WT (human, UniProt Q15306 21-130)
T1 sequence: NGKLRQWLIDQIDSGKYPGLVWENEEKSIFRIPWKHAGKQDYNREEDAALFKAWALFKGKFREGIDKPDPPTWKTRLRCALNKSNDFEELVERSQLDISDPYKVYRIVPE

T2: IRF4 DBD K59A (human, UniProt Q15306 21-130, K59A)
T2 sequence: T1 sequence with K39A

T3: IRF4 DBD L116R (human, UniProt Q15306 21-130, L116R)
T3 sequence: T1 sequence with L96R

B1: AICE2 (dsDNA)
DNA 1: GAGGTTTCGGGATGACTAATACT
DNA 2: AGTATTAGTCATCCCGAAACCTC
B2: ISRE (SPR) (dsDNA)
DNA 1: CAACTGAAACCGAGAAAGC
DNA 2: GCTTTCTCGGTTTCAGTTG
B3: AICE1 (dsDNA)
DNA 1: TAGTGCAGAAATGAGTCAGAGA
DNA 2: TCTCTGACTCATTTCTGCACTA
B4: EICE1 (dsDNA)
DNA 1: TAAAAGGAAGTGAAACCAAG
DNA 2: CTTGGTTTCACTTCCTTTTA

Legend:
Experiment in all cases: SPR
IRF4 DBD WT = biological target: T1, IRF4 DBD WT
IRF4 DBD K59A = biological target: T2, IRF4 DBD K59A
IRF4 DBD L116R = biological target: T3, IRF4 DBD L116R

| Binder | Kd (IRF4 DBD WT) [nM] | Kd (IRF4 DBD K59A) [nM] | Kd (IRF4 DBD L116R) [nM] |
| --- | --- | --- | --- |
| B1 | 1380 ± 510 | – | – |
| B2 | 250 ± 150 | 660 ± 100 | 60 ± 40 |
| B3 | 2800 ± 480 | – | 2210 ± 30 |
| B4 | 260 ± 70 | – | 60 ± 60 |
